This series deals with T1, Fur (ferric uptake regulator) (Salmonella enterica (strain for cloning not stated; SL1344/SV5015 used in the paper)) (UniProt A0A0H3NJ13).
T1 sequence: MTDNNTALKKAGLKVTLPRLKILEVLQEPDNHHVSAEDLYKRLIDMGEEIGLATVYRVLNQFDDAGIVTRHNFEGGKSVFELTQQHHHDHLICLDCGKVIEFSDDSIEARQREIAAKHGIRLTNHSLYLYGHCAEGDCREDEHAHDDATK
As to the kind of experiment: EMSA. Conditions: EMSA: 10 mM Bis-Tris/borate pH 7.5, 5% glycerol, 1 mM MgCl2, 40 mM KCl, 100 ug/ml BSA, 0.2 mg/ml salmon sperm DNA, 100 uM MnCl2, 20 nM probe, 10 min 37 C …. In general terms: In EMSA bound probe runs differently from free probe, usually more slowly.

Regarding “AGTTATCTGCGGCAGGACGCTGATGACTATTACTTACAAAGGTTACATTTTCCATATTATCCCTTTGTTGATGTTATTTTAATGTTCCTTACTGGTATCCTACTGA (double strand) [FrgC]”, the binding entry is given as “no binding”.
In the case of “AGTTATCTGCGGCAGGACGCTGATGACTATTACTTACAAAGGTTACATTTTCCATATTATCCCTTTGTTGATGTTATTTTAATGTTCCTTACTGGTATCCTACTGAAAAAATCTGAGTTGTAAATGCTCTTTATTAGCGTGTGTTGGCAATGGTCTGATTGTTACACCAAAAGAACCCAAATTTGGGTAATTTATCTACAGTAGTTTAAGCCCCAATGGGGATGATGGTTCTTTTAATATGTGTTGAGACGCATTATACA (double strand) [FrgB]”, the binding result is on record as “no binding”.
In turn, FrgA (PhilD) came in with a Kd of 4.5 nM.

For orientation: Kd means the concentration at which binding is half-saturated. Read a low Kd as tighter binding.

These data come from paper PMC3089636.
